US20160017052A1 (Genentech, published 2016)

Legend:
human factor D [1] = target: T1, human factor D (human, UniProt P00746 26-253); test: cell-based or functional assay
human factor D [2] = target: T1, human factor D; test: SPR, KD compared with AFD.v14
Description: The flow rate was 30 μL/min, the running buffer was HBS-P+, the temperature of analysis was 25° C., real-time reference cell subtraction was employed, and dissociation following factor D injection was followed for 10 minutes. After subtraction of the sensorgram observed for injection of running buffer, data were analyzed according to a 1:1 model using BiaEval software v4.1 (GE Healthcare) to extract the kinetics and affinity constants.

T1 sequence (P00746 26-253 limits assumed): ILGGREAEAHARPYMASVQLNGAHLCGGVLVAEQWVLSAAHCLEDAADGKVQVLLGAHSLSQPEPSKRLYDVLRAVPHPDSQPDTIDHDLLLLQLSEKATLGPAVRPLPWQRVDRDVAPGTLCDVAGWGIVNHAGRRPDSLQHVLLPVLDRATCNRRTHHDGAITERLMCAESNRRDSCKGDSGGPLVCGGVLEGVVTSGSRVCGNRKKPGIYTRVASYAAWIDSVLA

| fold decrease in affinity for fD against SIESD.N103S (AFD.v14) (human factor D [2]) [fold] | Binder | IC50 (nM) AP Hemolysis (human factor D [1]) [nM] |
| --- | --- | --- |
| – | AFD.v7 (TM.D92E; VL-D30E:D31S VH-D62E VL-D92E) (Fab, V domains shown) VH: EVQLVQSGPELKKPGASVKVSCKASGYTFTNYGMNWVRQAPGQGLEWMGWINTYTGETTYAEDFKGRFVFSLDTSVSTAYLQISSLKAEDTAVYYCEREGGVNNWGQGTLVTVSS VL: DIQVTQSPSSLSASVGDRVTITCITSTDIESDMNWYQQKPGKVPKLLISGGNTLRPGVPSRFSGSGSGTDFTLTISSLQPEDVATYYCLQSESLPYTFGQGTKVEIKR | 3.8 |
| – | AFD.v14 (SIESD.N103S; VL-D28S:D30E:D31S VH-D62E VH-N103S) (Fab, V domains shown) VH: EVQLVQSGPELKKPGASVKVSCKASGYTFTNYGMNWVRQAPGQGLEWMGWINTYTGETTYAEDFKGRFVFSLDTSVSTAYLQISSLKAEDTAVYYCEREGGVSNWGQGTLVTVSS VL: DIQVTQSPSSLSASVGDRVTITCITSTSIESDMNWYQQKPGKVPKLLISGGNTLRPGVPSRFSGSGSGTDFTLTISSLQPEDVATYYCLQSDSLPYTFGQGTKVEIKR | 4.1 |
| 4 | AFD.v15 (SIESD.N103S.D92E; VL-D28S:D30E:D31S:D92E VH-D62E:N103S) (Fab, V domains shown, Fab variant) VH: EVQLVQSGPELKKPGASVKVSCKASGYTFTNYGMNWVRQAPGQGLEWMGWINTYTGETTYAEDFKGRFVFSLDTSVSTAYLQISSLKAEDTAVYYCEREGGVSNWGQGTLVTVSS VL: DIQVTQSPSSLSASVGDRVTITCITSTSIESDMNWYQQKPGKVPKLLISGGNTLRPGVPSRFSGSGSGTDFTLTISSLQPEDVATYYCLQSESLPYTFGQGTKVEIKR | – |
| – | AFD.v8 (SIESD; VL-D28S:D30E:D31S VH-D62E) (Fab, V domains shown) VH: EVQLVQSGPELKKPGASVKVSCKASGYTFTNYGMNWVRQAPGQGLEWMGWINTYTGETTYAEDFKGRFVFSLDTSVSTAYLQISSLKAEDTAVYYCEREGGVNNWGQGTLVTVSS VL: DIQVTQSPSSLSASVGDRVTITCITSTSIESDMNWYQQKPGKVPKLLISGGNTLRPGVPSRFSGSGSGTDFTLTISSLQPEDVATYYCLQSDSLPYTFGQGTKVEIKR | 4.2 |
